Laboratory results as given in paper PMC10815899.

How the values were obtained:
[1] = molecular target: cytoplasmic Nakaseomyces glabratus glyceraldehyde 3-phosphate dehydrogenase (N. glabratus (endogenous in CBS138 / ATCC 2001)); assay: BLI; Octet N1; GAPDH amine-coupled on an AR2G biosensor; VTR or HPG 31–500 nM in solution; Langmuir 1:1 model
[2] = molecular target: recombinant Candida albicans glyceraldehyde 3-phosphate dehydrogenase (C. albicans) (UniProt Q5ADM7); assay: as above
[3] = molecular target: GAPDH on the surface of C. albicans cells (C. albicans (endogenous in ATCC 10231)) (UniProt Q5ADM7); assay: whole-cell binding assay with antibody blocking (SA-HRP/TMB); C. albicans hyphae in MaxiSorp wells (10^6 cells per well) or N. glabratus cells in tubes (3 × 10^7 per tube), pre-incubated with polyclonal anti-ScGAPDH antibody (1 µg/mL), then 150 nM biotin-labeled VTR or HPG, 1 h at 37 °C
[4] = molecular target: GAPDH present on the surface of N. glabratus cells (N. glabratus (endogenous in CBS138 / ATCC 2001)); assay: as above
[5] = molecular target: cytoplasmic Nakaseomyces glabratus glyceraldehyde 3-phosphate dehydrogenase (N. glabratus (endogenous in CBS138 / ATCC 2001)); assay: SPR; Biacore 3000; GAPDH amine-coupled on a CM5 chip; VTR 10–500 nM, 30 µL/min, 25 °C, HBS buffer (10 mM HEPES, 150 mM NaCl, 0.005% P20, pH 7.4); Langmuir 1:1 model with baseline drift
[6] = molecular target: recombinant Candida albicans glyceraldehyde 3-phosphate dehydrogenase (C. albicans) (UniProt Q5ADM7); assay: as above
[7] = molecular target: GAPDH present on the surface of N. glabratus cells (N. glabratus (endogenous in CBS138 / ATCC 2001)); assay: SEC; Superdex 200 HR 10/50, calibrated with molecular mass standards, 0.5 mL/min; buffer 20 mM Tris-HCl pH 6.7 (methods) or 50 mM NaH2PO4, 150 mM NaCl pH 7.0
[8] = molecular target: epithelial adhesin 6 of N. glabratus (N. glabratus (endogenous)) (UniProt Q6FX55); assay: BLI; Octet N1; Epa6 immobilised on an AR2G biosensor; NgGAPDH 100–1000 nM; Langmuir 1:1 model
[9] = molecular target: cytoplasmic Nakaseomyces glabratus glyceraldehyde 3-phosphate dehydrogenase (N. glabratus (endogenous in CBS138 / ATCC 2001)); assay: SEC; Superdex 200 HR 10/50, calibrated with molecular mass standards, 0.5 mL/min; buffer 20 mM Tris-HCl pH 6.7 (methods) or 50 mM NaH2PO4, 150 mM NaCl pH 7.0
[10] = molecular target: vitronectin (Homo sapiens) (UniProt P04004); details: cited from earlier work
Sequence of vitronectin (Homo sapiens) (P04004 399-478): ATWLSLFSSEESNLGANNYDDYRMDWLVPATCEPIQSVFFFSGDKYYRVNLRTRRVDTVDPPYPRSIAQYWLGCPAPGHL

Row | Substance | Kd [1] | koff [1] | kon [1] | Kd [2] | koff [2] | kon [2] | percent decrease of binding to cells with anti-ScGAPDH antibody [3] | percent decrease of binding to cells with anti-ScGAPDH antibody [4] | further results
1 | human plasminogen (natural protein) | 8.69 nM | 0.000649 s⁻¹ | 74600 M⁻¹ s⁻¹ | 150 nM | 0.00496 s⁻¹ | 33000 M⁻¹ s⁻¹ | 19% | 36% | –
2 | human vitronectin (natural protein) | 33.9 nM | 0.00172 s⁻¹ | 50700 M⁻¹ s⁻¹ | 20.6 nM | 0.000799 s⁻¹ | 38900 M⁻¹ s⁻¹ | 16% | 12% | Kd [5]: 48 nM; koff [5]: 0.00183 s⁻¹; kon [5]: 38100 M⁻¹ s⁻¹; Kd [6]: 44.2 nM; koff [6]: 0.000619 s⁻¹; kon [6]: 14000 M⁻¹ s⁻¹
3 | GAPDH present on the surface of N. glabratus cells (enzyme) | – | – | – | – | – | – | – | – | stoichiometry N [7]: 4
4 | cytoplasmic Nakaseomyces glabratus glyceraldehyde 3-phosphate dehydrogenase (enzyme) | – | – | – | – | – | – | – | – | Kd [8]: 7 to 14 nM; stoichiometry N [9]: 4
5 | enolase (from UniProt P30575) | – | – | – | – | – | – | – | – | Kd [10]: 40 nM
